Measurements: the RNAGym collection of RNA variant scans (doi:10.7554/elife.90254)

B1: LINE1-mini (parent)
chain: GGCAGAGCUCAACACAGCGUGGCAAAGUGGCUGUGGCUAGACUGCC

Variants of: B1
Test: self-cleavage, relative activity (ratio to wild type); higher = more cleavage; in vitro, sequencing; the parent is a self-cleaving ribozyme
For GGCAGAGCUCAACACAGCGUGGCAAAGUGGCGGUGGCUAGACUUCC, the self-cleavage was 0.05.
UGCAGAGCUCAACACAGCGUGGCAAAGUGGCAGUGGCUAGACUGCC gave a self-cleavage of 0.06.
For GGCGGAGCUCAAGACAGCGUGGCAAAGUGGCUGUGGCUAGACUGCC, the self-cleavage was 0.2.
GGCAGCGCUCAACACAGCGUGGCAAAGUGGCUGUGGGUAGACUGCC showed a self-cleavage of 0.03.
With GGCAGAGCUCAAACCAGCGUGGCAAAGUGGCUGUGGCUAGACUGCC the self-cleavage was 0.08.
GGCAGAGCUCAACCCAGCCUGGCAAAGUGGCUGUGGCUAGACUGCC gave a self-cleavage of 0.03.
GGAAGAGCUCAACACAGCGUGCCAAAGUGGCUGUGGCUAGACUGCC showed a self-cleavage of 0.58.
GGCAGAGCUCACCACAGCGUGGCAAAGUGGCUGUGUCUAGACUGCC gave a self-cleavage of 0.03.
With GGCAGAGCUCAACACUACGUGGCAAAGUGGCUGUGGCUAGACUGCC the self-cleavage was 0.06.
GGUAGAGCUCAAUACAGCGUGGCAAAGUGGCUGUGGCUAGACUGCC gave a self-cleavage of 0.23.
In the case of GGCAGAGCUCAACACAGCGCGGCCAAGUGGCUGUGGCUAGACUGCC, the self-cleavage is reported as 0.31.
GGCAGAGCUCAACACAGCGUGGCAGAGUGACUGUGGCUAGACUGCC showed a self-cleavage of 0.97.
For GGCAGAGCUCAACACAGCGCGGCAAAUUGGCUGUGGCUAGACUGCC, the self-cleavage was 0.31.
GGCAGAGCUAAACACAGCGUGGCAAAGUGGCUGUGGCUAGAAUGCC gave a self-cleavage of 0.02.
In the case of GGCAGAGCUCAACAGAGCGUGGCAAAGUGGCUGUGGCUAGAUUGCC, the self-cleavage is reported as 0.04.
Work on GGCGGAGCUCAACACAUCGUGGCAAAGUGGCUGUGGCUAGACUGCC yielded a self-cleavage of 0.18.
GGCAGAGCUUAACAGAGCGUGGCAAAGUGGCUGUGGCUAGACUGCC showed a self-cleavage of 0.05.
In the case of GGCAGAGCUCAACACAGCGUGGCAAAGAGGCUGUGGCUAGACUGCU, the self-cleavage is reported as 0.66.
Variant GGCAGAGCUCAACACAGCGUGGCAAAGUGGCUGUUGCUAGACUGGC has a self-cleavage of 0.07.
GGGAGAGCUCAACAAAGCGUGGCAAAGUGGCUGUGGCUAGACUGCC showed a self-cleavage of 0.18.
For GGCAGAGCUCACCACAGCGUGGCAAAGUGGUUGUGGCUAGACUGCC, the self-cleavage was 0.02.
GGCAGAGCUCAACACAGCGUGGUAAAGUGGCUGUGGCUCGACUGCC showed a self-cleavage of 0.29.
GGCAGAGCUCAACACAGCGUGGCAAAGUGGUUGUGGCUAGACUGCU gave a self-cleavage of 0.23.
GGCAGAGCUCAACUCAGCGUGGCAAAGUGGCUGUGGCUAGACGGCC gave a self-cleavage of 0.35.
In the case of GGCAGAGCUCAACACAGCGUAGCAAAGUGGCUGUGGCGAGACUGCC, the self-cleavage is reported as 0.03.
For GGUAGAGCUCAACACAGCGUGUCAAAGUGGCUGUGGCUAGACUGCC, the self-cleavage was 0.82.
GGCAGAGCUCAACACAGCGUGGCAAAGUGGCUCUGGCUAAACUGCC showed a self-cleavage of 0.05.
GGCAGAGCUCAACACAGCGUGACAAAGGGGCUGUGGCUAGACUGCC gave a self-cleavage of 0.67.
GGGAGAGCUCAACACAGCGUGGCAAAGUGGCUGUGGCUACACUGCC gave a self-cleavage of 0.1.
GGCAAAGCUCAACACAGCGUGGCAAAGUGGCUCUGGCUAGACUGCC gave a self-cleavage of 0.09.
In the case of GGCAGAGCUCAACACAGCGUGGCACAGUGGCUGUGGUUAGACUGCC, the self-cleavage is reported as 0.06.
In the case of GGAAGAGCUCAACACAGCGUGGCUAAGUGGCUGUGGCUAGACUGCC, the self-cleavage is reported as 0.51.
For GGCACAGCUCAACACAGCGUGGCAAAGUGGCUGUGGCGAGACUGCC, the self-cleavage was 0.03.
Work on GGCAGAGCUCAACACAGCGUGGCAAAGUGGGUGGGGCUAGACUGCC yielded a self-cleavage of 0.04.
Work on GGCAGAGCUCAACACAACGUGGCAAAGUGGCUGUUGCUAGACUGCC yielded a self-cleavage of 0.05.
With GGCAGAGCACAACACAGCGUGGCAAAGUGGCCGUGGCUAGACUGCC the self-cleavage was 0.13.
Variant GCCAGAGCUCAACACAGCGUGGCAAAGUGGCUGUGGCUAGAUUGCC has a self-cleavage of 0.07.
In the case of GGCAGAGCUCAACACGGGGUGGCAAAGUGGCUGUGGCUAGACUGCC, the self-cleavage is reported as 0.04.
Variant GGCUGAGCUCAACACAGCGUGGCAAAGUGGCGGUGGCUAGACUGCC has a self-cleavage of 0.14.
Variant GGCAGAGCUCAACAUAGCGUGGCAAAGUGGCUGUGGCUAGACUGGC has a self-cleavage of 0.2.
GGCAGAGCUCAACACAGCGUGGCAAAGUGGCGGUGGCUACACUGCC showed a self-cleavage of 0.07.
In the case of GGCAGAGUUCAACACAGCGUGGCAAAGUGGCUGUGGCUAGAGUGCC, the self-cleavage is reported as 0.13.
Work on GGCAGAGCGCAACACAGCGUGGCAAAGAGGCUGUGGCUAGACUGCC yielded a self-cleavage of 0.11.
GGCAGAGCUCAACACAGCGUGGCAAAGUGGAUGUGGCAAGACUGCC gave a self-cleavage of 0.12.
With GGCAGAGCUCAACACGGCGUGGCAAAGUGGCUUUGGCUAGACUGCC the self-cleavage was 0.04.
Work on GGCAGAGCACAACACAGCGUGGCCAAGUGGCUGUGGCUAGACUGCC yielded a self-cleavage of 0.56.
With GGCAGAGCUCAGCACGGCGUGGCAAAGUGGCUGUGGCUAGACUGCC the self-cleavage was 0.03.
Work on GGCAGAGUUCAAAACAGCGUGGCAAAGUGGCUGUGGCUAGACUGCC yielded a self-cleavage of 0.5.
For GGCAGAGGUCAACACAGCGUGUCAAAGUGGCUGUGGCUAGACUGCC, the self-cleavage was 0.09.
GGCAGAGCUCAACACAGCGUGACAAAGUCGCUGUGGCUAGACUGCC showed a self-cleavage of 0.21.
GGCAGAGCUCAACACAGCGUGGCAAAGUGGCUGUAGCUAGACGGCC gave a self-cleavage of 0.03.
With GGAAGAGCUCAACACAGCGUGGCAAAGUGGCUGUCGCUAGACUGCC the self-cleavage was 0.18.
GGCAGAGCUCAGCACAGCGUGGCAAAGUGGCUGUGGCUAGACUGUC showed a self-cleavage of 0.05.
With GGCAGAGCUCAACACAGCGUGGCAGAGUGGCGGUGGCUAGACUGCC the self-cleavage was 0.12.
For GGAAGAGCUCAACACAGCGUGGCAAAGUGGCUGUGGCUAGACUGCG, the self-cleavage was 0.29.
For GGCAGAGCUCAAUACAGCGUGGCAAAGUGGCCGUGGCUAGACUGCC, the self-cleavage was 0.08.
